Data on 36 molecules can be found in US20220064312A1.

Sequences and labels used below:
B1: h10A11 IGKV4-1/IGHV3-73 T31A (antibody, name in Kabat numbering, V domains shown)
VH: EVQLVESGGGLVQPGGSLKLSCAASGFAFNAYALYWVRQASGKGLEWVGRIRSKSNNYATYYADSVKDRFTISRDDSKNTAYLQMNSLKTEDTAVYYCTRARFYYSDYGYAMDYWGQGTLVTVSS
VL: DIVMTQSPDSLAVSLGERATINCRSSKSLLHSNGNTYLYWYQQKPGQPPKLLIYRMSNLASGVPDRFSGSGSGTDFTLTISSLQAEDVAVYYCMQHLEYPLTFGQGTKLEIKR
B2: h10A11 IGKV4-1/IGHV3-73 Y58F (antibody, name in Kabat numbering, V domains shown)
VH: B1 VH with A31T, Y61F
VL: B1 VL
B3: h10A11 IGKV4-1/IGHV3-73 A56V (antibody, name in Kabat numbering, V domains shown)
VH: B1 VH with A31T, A59V
VL: B1 VL
B4: h10A11 IGKV4-1/IGHV3-73 D101E (antibody, name in Kabat numbering, V domains shown)
VH: B1 VH with A31T, D113E
VL: B1 VL
B5: h10A11 IGKV4-1/IGHV3-73 R96K (antibody, name in Kabat numbering, V domains shown)
VH: B1 VH with A31T, R102K
VL: B1 VL
B6: h10A11 IGKV4-1/IGHV3-73 R52K (antibody, name in Kabat numbering, V domains shown)
VH: B1 VH with A31T, R52K
VL: B1 VL
B7: h10A11 IGKV4-1/IGHV3-73 Y100bF (antibody, name in Kabat numbering, V domains shown)
VH: B1 VH with A31T, Y108F
VL: B1 VL
B8: h10A11 IGKV4-1/IGHV3-73 K64R (antibody, name in Kabat numbering, V domains shown)
VH: B1 VH with A31T, K67R
VL: B1 VL
B9: h10A11 IGKV4-1/IGHV3-73 Y35F (antibody, name in Kabat numbering, V domains shown)
VH: B1 VH with A31T, Y35F
VL: B1 VL
B10: h10A11 IGKV4-1/IGHV3-73 R50K (antibody, name in Kabat numbering, V domains shown)
VH: B1 VH with A31T, R50K
VL: B1 VL
B11: h10A11 IGKV4-1/IGHV3-73 M100fL (antibody, name in Kabat numbering, V domains shown)
VH: B1 VH with A31T, M112L
VL: B1 VL
B12: h10A11 IGKV4-1/IGHV3-73 Y98F (antibody, name in Kabat numbering, V domains shown)
VH: B1 VH with A31T, Y104F
VL: B1 VL
B13: h10A11 IGKV4-1/IGHV3-73 D100aE (antibody, name in Kabat numbering, V domains shown)
VH: B1 VH with A31T, D107E
VL: B1 VL
B14: h10A11 IGKV4-1/IGHV3-73 D65E (antibody, name in Kabat numbering, V domains shown)
VH: B1 VH with A31T, D68E
VL: B1 VL
B15: h10A11 IGKV4-1/IGHV3-73 Y100dF (antibody, name in Kabat numbering, V domains shown)
VH: B1 VH with A31T, Y110F
VL: B1 VL
B16: h10A11 IGKV4-1/IGHV3-73 V63L (antibody, name in Kabat numbering, V domains shown)
VH: B1 VH with A31T, V66L
VL: B1 VL
B17: h10A11 IGKV4-1/IGHV3-73 Y99F (antibody, name in Kabat numbering, V domains shown)
VH: B1 VH with A31T, Y105F
VL: B1 VL
B18: h10A11 IGKV4-1/IGHV3-73 F97L (antibody, name in Kabat numbering, V domains shown)
VH: B1 VH with A31T, F103L
VL: B1 VL
B19: h10A11 IGKV4-1/IGHV3-73 A33V (antibody, name in Kabat numbering, V domains shown)
VH: B1 VH with A31T, A33V
VL: B1 VL
B20: h10A11 IGKV4-1/IGHV3-73 L34I (antibody, name in Kabat numbering, V domains shown)
VH: B1 VH with A31T, L34I
VL: B1 VL
B21: h10A11 IGKV4-1/IGHV3-73 D61E (antibody, name in Kabat numbering, V domains shown)
VH: B1 VH with A31T, D64E
VL: B1 VL
B22: h10A11 IGKV4-1/IGHV3-73 Y59F (antibody, name in Kabat numbering, V domains shown)
VH: B1 VH with A31T, Y62F
VL: B1 VL
B23: h10A11 IGKV4-1/IGHV3-73 S62T (antibody, name in Kabat numbering, V domains shown)
VH: B1 VH with A31T, S65T
VL: B1 VL
B24: h10A11 IGKV4-1/IGHV3-73 A60V (antibody, name in Kabat numbering, V domains shown)
VH: B1 VH with A31T, A63V
VL: B1 VL
B25: h10A11 IGKV4-1/IGHV3-73 Y32F (antibody, name in Kabat numbering, V domains shown)
VH: B1 VH with A31T, Y32F
VL: B1 VL
B26: h10A11 IGKV4-1/IGHV3-73 Y55F (antibody, name in Kabat numbering, V domains shown)
VH: B1 VH with A31T, Y58F
VL: B1 VL
B27: h10A11 IGKV4-1/IGHV3-73 S52cT (antibody, name in Kabat numbering, V domains shown)
VH: B1 VH with A31T, S55T
VL: B1 VL
B28: h10A11 IGKV4-1/IGHV3-73 I51L (antibody, name in Kabat numbering, V domains shown)
VH: B1 VH with A31T, I51L
VL: B1 VL
B29: h10A11 IGKV4-1/IGHV3-73 G100cA (antibody, name in Kabat numbering, V domains shown)
VH: B1 VH with A31T, G109A
VL: B1 VL
B30: h10A11 IGKV4-1/IGHV3-73 S100T (antibody, name in Kabat numbering, V domains shown)
VH: B1 VH with A31T, S106T
VL: B1 VL
B31: h10A11 IGKV4-1/IGHV3-73 A100eV (antibody, name in Kabat numbering, V domains shown)
VH: B1 VH with A31T, A111V
VL: B1 VL
B32: h10A11 IGKV4-1/IGHV3-73 T57S (antibody, name in Kabat numbering, V domains shown)
VH: B1 VH with A31T, T60S
VL: B1 VL
B33: h10A11 IGKV4-1/IGHV3-73 N53Q (antibody, name in Kabat numbering, V domains shown)
VH: B1 VH with A31T, N56Q
VL: B1 VL
B34: h10A11 IGKV4-1/IGHV3-73 Y102F (antibody, name in Kabat numbering, V domains shown)
VH: B1 VH with A31T, Y114F
VL: B1 VL
B35: h10A11 IGKV4-1/IGHV3-73 S52aT (antibody, name in Kabat numbering, V domains shown)
VH: B1 VH with A31T, S53T
VL: B1 VL
B36: h10A11 IGKV4-1/IGHV3-73 K52bR (antibody, name in Kabat numbering, V domains shown)
VH: B1 VH with A31T, K54R
VL: B1 VL

Numbering of substitutions follows the chain as printed. Numbers in names are those of the source.

Sequence of human CCR8 (human) (P51685 whole entry): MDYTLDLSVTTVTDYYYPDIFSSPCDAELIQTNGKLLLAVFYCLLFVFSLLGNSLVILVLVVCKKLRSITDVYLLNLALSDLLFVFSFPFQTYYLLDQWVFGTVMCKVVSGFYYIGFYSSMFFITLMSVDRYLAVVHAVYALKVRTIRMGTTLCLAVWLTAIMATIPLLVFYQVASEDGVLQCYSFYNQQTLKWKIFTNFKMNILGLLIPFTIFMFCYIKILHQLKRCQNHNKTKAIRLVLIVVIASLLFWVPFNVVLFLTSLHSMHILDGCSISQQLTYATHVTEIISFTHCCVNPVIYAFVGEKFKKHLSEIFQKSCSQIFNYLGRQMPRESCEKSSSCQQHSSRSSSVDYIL

This assay addresses human CCR8 (human) (UniProt P51685). As to the kind of experiment: cell-based or functional assay.
On to B1, for which the IC50 ratio (WT IC50/mutant IC50) turned out to be 0.17.
Same read-out and setting: to B2 belongs 0.5; to B3, 0.55.
For the molecule B4, the IC50 (n.d.: 10 nM or more) was > 10 nM.
The same measure, in the same setting: in the case of B5 it was > 10 nM.
As for B6, the IC50 (n.d.: 10 nM or more) is > 10 nM.
Consider B7, for which the IC50 ratio (WT IC50/mutant IC50) was 0.75.
Still for that read-out and setting: in the case of B8 it was 0.54.
For B9, the IC50 (n.d.: 10 nM or more) is > 10 nM.
As for B10, the IC50 ratio (WT IC50/mutant IC50) worked out at 0.12.
Still for that read-out and setting: to B11 belongs 0.72; to B12, 0.07; to B13, 0.3.
For the molecule B14, the IC50 ratio (WT IC50/mutant IC50) worked out at 1.3.
Same read-out and setting: to B15 belongs 0.55.
For the molecule B16, the IC50 ratio (WT IC50/mutant IC50) turned out to be 0.56.
The same measure, in the same setting: in the case of B17 it was 0.8.
Consider B18, for which the IC50 (n.d.: 10 nM or more) was > 10 nM.
As for B19, the IC50 (n.d.: 10 nM or more) is > 10 nM.
B20: the IC50 ratio (WT IC50/mutant IC50) was determined as 0.43.
Still for that read-out and setting: to B21 belongs 0.25.
The same measure, in the same setting: in the case of B22 it was 0.03; in that of B23, 1.6.
Still for that read-out and setting: to B24 belongs 0.67.
For B25, the IC50 ratio (WT IC50/mutant IC50) was found to be 0.44.
Turning to B26, the IC50 ratio (WT IC50/mutant IC50) worked out at 0.47.
On the same count and under the same terms, in the case of B27 it was 0.53; in that of B28, 0.22; in that of B29, 0.07.
The same measure, in the same setting: to B30 belongs 0.64.
On the same count and under the same terms, in the case of B31 it was 0.49.
On to B32, for which the IC50 ratio (WT IC50/mutant IC50) stood at 0.49.
On the same count and under the same terms, in the case of B33 it was 0.03; in that of B34, 0.99; in that of B35, 0.22.
For B36, the IC50 ratio (WT IC50/mutant IC50) came out at 0.47.
